“Also recorded” adds a separate entry of the source.
B1: F227A (protein)
chain: EDDIIIATKNGKVRGMNLTVFGGTVTAFLGIPYAQPPLGRLRFKKPQSLTKWSDIWNATKYANSCCQNIDQSFPGFHGSEMWNPNTDLSEDCLYLNVWIPAPKPKNATVLIWIYGGGFQTGTSSLHVYDGKFLARVERVIVVSMNYRVGALGFLALPGNPEAPGNMGLFDQQLALQWVQKNIAAFGGNPKSVTLFGESAGAASVSLHLLSPGSHSLFTRAILQSGSXNAPWAVTSLYEARNRTLNLAKLTGCSRENETEIIKCLRNKDPQEILLNEAFVVPYGTPLSVNFGPTVDGDFLTDMPDILLELGQFKKTQILVGVNKDEGTAFLVYGAPGFSKDNNSIITRKEFQEGLKIFFPGVSEFGKESILFHYTDWVDDQRPENYREALGDVVGDYNFICPALEFTKKFSEWGNNAFFYYFEHRSSKLPWPEWMGVMHGYEIEFVFGLPLERRDNYTKAEEILSRSIVKRWANFAKYGNPNETQNNSTSWPVFKSTEQKYLTLNTESTRIMTKLRAQQCRFWTSFFPKVLEMTGNIDEAEWEWKAGFHRWNNYMMDWKNQFNDYTSKKESCVGL
modifications: Synthetic butyrylcholinesterase variant; VARIANT (227)..(227): Xaa = Ala
B2: F227A/L286S (protein)
chain: EDDIIIATKNGKVRGMNLTVFGGTVTAFLGIPYAQPPLGRLRFKKPQSLTKWSDIWNATKYANSCCQNIDQSFPGFHGSEMWNPNTDLSEDCLYLNVWIPAPKPKNATVLIWIYGGGFQTGTSSLHVYDGKFLARVERVIVVSMNYRVGALGFLALPGNPEAPGNMGLFDQQLALQWVQKNIAAFGGNPKSVTLFGESAGAASVSLHLLSPGSHSLFTRAILQSGSXNAPWAVTSLYEARNRTLNLAKLTGCSRENETEIIKCLRNKDPQEILLNEAFVVPYGTPSSVNFGPTVDGDFLTDMPDILLELGQFKKTQILVGVNKDEGTAFLVYGAPGFSKDNNSIITRKEFQEGLKIFFPGVSEFGKESILFHYTDWVDDQRPENYREALGDVVGDYNFICPALEFTKKFSEWGNNAFFYYFEHRSSKLPWPEWMGVMHGYEIEFVFGLPLERRDNYTKAEEILSRSIVKRWANFAKYGNPNETQNNSTSWPVFKSTEQKYLTLNTESTRIMTKLRAQQCRFWTSFFPKVLEMTGNIDEAEWEWKAGFHRWNNYMMDWKNQFNDYTSKKESCVGL
modifications: Synthetic butyrylcholinesterase variant; VARIANT (227)..(227): Xaa = Ala; VARIANT (286)..(286): L286S
B3: F227A/T284A (protein)
chain: EDDIIIATKNGKVRGMNLTVFGGTVTAFLGIPYAQPPLGRLRFKKPQSLTKWSDIWNATKYANSCCQNIDQSFPGFHGSEMWNPNTDLSEDCLYLNVWIPAPKPKNATVLIWIYGGGFQTGTSSLHVYDGKFLARVERVIVVSMNYRVGALGFLALPGNPEAPGNMGLFDQQLALQWVQKNIAAFGGNPKSVTLFGESAGAASVSLHLLSPGSHSLFTRAILQSGSXNAPWAVTSLYEARNRTLNLAKLTGCSRENETEIIKCLRNKDPQEILLNEAFVVPYGXPLSVNFGPTVDGDFLTDMPDILLELGQFKKTQILVGVNKDEGTAFLVYGAPGFSKDNNSIITRKEFQEGLKIFFPGVSEFGKESILFHYTDWVDDQRPENYREALGDVVGDYNFICPALEFTKKFSEWGNNAFFYYFEHRSSKLPWPEWMGVMHGYEIEFVFGLPLERRDNYTKAEEILSRSIVKRWANFAKYGNPNETQNNSTSWPVFKSTEQKYLTLNTESTRIMTKLRAQQCRFWTSFFPKVLEMTGNIDEAEWEWKAGFHRWNNYMMDWKNQFNDYTSKKESCVGL
modifications: Synthetic butyrylcholinesterase variant; VARIANT (227)..(227): Xaa = Ala; VARIANT (284)..(284): Xaa = Ala

Experiment: HPLC assay of CPT-11 conversion to SN-38 by conditioned media of transiently expressed BChE variants
Type: biochemical
Details: for SN-38 formation from CPT-11 (in words): conditioned media, HPLC, compared to mock or wild-type; for Fold improvement in CPT-11 conversion: compared to wild-type butyrylcholinesterase, conditioned media exposed to 20 mM CPT-11 for 72 hours at 37° C., conservative values
Method: Butyrylcholinesterase variants were assayed for CPT-11 conversion activity using fluorescent High Performance Liquid Chromotography (HPLC) detection of SN-38 formation as described in Dodds and Rivory, Mol. Pharmacol. 56:1346-1353 (1999), which is incorporated herein by reference. Briefly, conditioned media from transiently expressed BChE variants were exposed to 20 mM CPT-11 for 72 hours at 37° C. and analyzed by HPLC for SN-38 formation (peak at about 4 minutes column retention time).

| Molecule | SN-38 formation from CPT-11 (in words) | Fold improvement in CPT-11 conversion | Fold improvement in CPT-11 conversion (listed as F227A/L268S) |
| --- | --- | --- | --- |
| B1 | produced a small amount of SN-38; also recorded: increased CPT-11 conversion to SN-38 |  |  |
| B2 | significant conversion; also recorded: increased CPT-11 conversion to SN-38 | >50 fold | ≥ 50 fold |
| B3 | increased CPT-11 conversion to SN-38 | >7 fold |  |

From patent US20080213281A1, “Butyrylcholinesterase Variants that Alter the Activity of Chemotherapeutic Agents” (priority 2002, published 2008)
